Here are results for 5 molecules from article PMC10559304 (Molecular Biology of the Cell, 2023).

Like-named read-outs stand apart in the source and are kept apart here.

For series [1], the target named is Taxol-stabilized microtubules of unlabeled, Alexa 647-labeled and biotinylated tubulin (50:2:1.5) (not stated (Pork or Bovine brains)). The series is described as follows: single-molecule TIRF microscopy motility assay.
The target of series [2] is D. melanogaster KLP61F extended bipolar assembly domain (BASS-XL) minifilament (D. melanogaster) (UniProt P46863). Kind of series: crystal structure.
Series [3] has as its target GMPCPP-polymerized, Taxol-stabilized microtubules of the crosslinking and sliding assay (surface-immobilized HiLyte 647/biotin MTs and free rhodamine MTs). Kind of series: MT crosslinking and sliding assay by three-colour TIRF microscopy.
The target of series [4] is microtubules of biotin- and Alexa-Fluor-633-labeled porcine tubulin, polymerized with GMPCPP or Paclitaxel (porcine). The series is described as follows: single-molecule TIRF microscopy motility assay.
Series [5] has the same target. Kind of series: single-molecule TIRF microscopy motility assay. This is another data set of the same source.
The series “mass photometry” concerns the molecule itself. The series is described as follows: mass photometry.
Series [6] deals with microtubules of biotin- and Alexa-Fluor-633-labeled porcine tubulin, polymerized with GMPCPP or Paclitaxel (porcine). The series is described as follows: single-molecule TIRF microscopy motility assay. This is another data set of the same source.
Series [7] concerns the molecule itself. The series is described as follows: single-molecule TIRF microscopy, Neon Green spot intensities.
The target of series [8] is microtubules of biotin- and Alexa-Fluor-633-labeled porcine tubulin, polymerized with GMPCPP or Paclitaxel (porcine). The series is described as follows: single-molecule TIRF microscopy motility assay. This is another data set of the same source.
Series [9] shares this target. The series is described as follows: single-molecule TIRF microscopy motility assay. This is another data set of the same source.

Usually stoichiometry N stands for a count of units in the complex or per binding partner.

For the molecule “human Eg5 kinesin-5 minitetramer without tail, labeled with Tetra-methyl Rhodamine (from UniProt P52732;P46863)”, in series [1], the lifetime at MT plus-ends, long population (Weibull a2) was 140 s and the lifetime at MT plus-ends, short population (Weibull a1) came to 14.6 s.
Take “D. melanogaster KLP61F extended bipolar assembly domain (BASS-XL) minifilament (from UniProt P46863 597-833) (domain or fragment)”: in series [2], the stoichiometry N came to 4.
In series [3], “full-length human kinesin-5 (Eg5) without the tail, GFP fusion (domain or fragment)” showed a percent of surface-immobilized MTs crosslinked to free MTs of 54%.

B1: D. melanogaster KLP61F kinesin-5 minitetramer without tail, fused to Neon Green (other)
chain: MDISGGNTSRQPQKKSNQNIQVYVRVRPLNSRERCIRSAEVVDVVGPREVVTRHTLDSKLTKKFTFDRSFGPESKQCDVYSVVVSPLIEEVLNGYNCTVFAYGQTGTGKTHTMVGNETAELKSSWEDDSDIGIIPRALSHLFDELRMMEVEYTMRISYLELYNEELCDLLSTDDTTKIRIFDDSTKKGSVIIQGLEEIPVHSKDDVYKLLEKGKERRKTATTLMNAQSSRSHTVFSIVVHIRENGIEGEDMLKIGKLNLVDLAGSENVSKAGNEKGIRVRETVNINQSLLTLGRVITALVDRAPHVPYRESKLTRLLQESLGGRTKTSIIATISPGHKDIEETLSTLEYAHRAKNIQNKPEVNQKLTKKAQSLQDQTNLHNKLIGEVMKISDQHSQAFVAKLMEQMQQQQLLMSKEIQTNLQVIEENNQRHKAMLDSMQEKFATIIDSSLQSVEEHAKQMHKKLEQLGAMSLPDAEELQNLQEELANERALAQQEDALLESMMMQMEQIKNLRSKNSISMSVHLNKMEESRLTRNHRIDDIKSGIQDYQKLGIEASQSAQAELTSQMEAGMLCLDQGVANCSMLQVHMKNLNQKYEKETNENVGSV
Regarding B1, the MT plus-end dwell time in series [4] was 25 s; in [5] it was 78 s. Besides, the “stoichiometry N” value in the series “mass photometry” was determined as 4. Moreover, the percent of surface-immobilized MTs crosslinked to free MTs in series [3] was 2%.

B2: D. melanogaster KLP61F kinesin-5 minitetramer with tail, fused to Neon Green (other)
chain: MDISGGNTSRQPQKKSNQNIQVYVRVRPLNSRERCIRSAEVVDVVGPREVVTRHTLDSKLTKKFTFDRSFGPESKQCDVYSVVVSPLIEEVLNGYNCTVFAYGQTGTGKTHTMVGNETAELKSSWEDDSDIGIIPRALSHLFDELRMMEVEYTMRISYLELYNEELCDLLSTDDTTKIRIFDDSTKKGSVIIQGLEEIPVHSKDDVYKLLEKGKERRKTATTLMNAQSSRSHTVFSIVVHIRENGIEGEDMLKIGKLNLVDLAGSENVSKAGNEKGIRVRETVNINQSLLTLGRVITALVDRAPHVPYRESKLTRLLQESLGGRTKTSIIATISPGHKDIEETLSTLEYAHRAKNIQNKPEVNQKLTKKAQSLQDQTNLHNKLIGEVMKISDQHSQAFVAKLMEQMQQQQLLMSKEIQTNLQVIEENNQRHKAMLDSMQEKFATIIDSSLQSVEEHAKQMHKKLEQLGAMSLPDAEELQNLQEELANERALAQQEDALLESMMMQMEQIKNLRSKNSISMSVHLNKMEESRLTRNHRIDDIKSGIQDYQKLGIEASQSAQAELTSQMEAGMLCLDQGVANCSMLQVHMKNLNQKYEKETNENVGSVQICEQELVRFQQSELKTYAPTGTTPSKRDFVYPRTLVATSPHQEIVRRYRQELDWSDLDTTATIDECSEGEHDVSMHSVQELSETETIMNSTPIEPVDGVTVKRGCGTTRNSNSNALKPPVATGGKRSSSLSRSLTPSKTSPRGSPAFVRHNKENVA
As to B2, the MT plus-end dwell time in series [4] stood at 267 s; in series [6] it was 147 s; in series [5], 117 s; in [8], 125 s; in [9], 25 s. For the same molecule, the “stoichiometry N” value was 5 to 10 motors per cluster in series [7] and 4 in “mass photometry”. In [3], this molecule showed a percent of surface-immobilized MTs crosslinked to free MTs of 24%.
